Measurements as given in patent US20240261333A1, “NOVEL TARGETS FOR ENHANCING ANTI-TUMOR IMMUNITY” (THE BROAD INSTITUTE, INC., priority 2021, published 2024).

T1: B3GNT2 (Homo sapiens, UniProt Q9NY97)
T1 construct: The respective ORFs of candidate genes [CD274 (NM_014143), MCL1 (NM_021960), JUNB (NM_002229), and B3GNT2 (NM_006577)] were synthesized; expressed in transfected cells; host or cells: A375 melanoma cells (lentiviral ORF overexpression)
T1 sequence (Q9NY97 1-397): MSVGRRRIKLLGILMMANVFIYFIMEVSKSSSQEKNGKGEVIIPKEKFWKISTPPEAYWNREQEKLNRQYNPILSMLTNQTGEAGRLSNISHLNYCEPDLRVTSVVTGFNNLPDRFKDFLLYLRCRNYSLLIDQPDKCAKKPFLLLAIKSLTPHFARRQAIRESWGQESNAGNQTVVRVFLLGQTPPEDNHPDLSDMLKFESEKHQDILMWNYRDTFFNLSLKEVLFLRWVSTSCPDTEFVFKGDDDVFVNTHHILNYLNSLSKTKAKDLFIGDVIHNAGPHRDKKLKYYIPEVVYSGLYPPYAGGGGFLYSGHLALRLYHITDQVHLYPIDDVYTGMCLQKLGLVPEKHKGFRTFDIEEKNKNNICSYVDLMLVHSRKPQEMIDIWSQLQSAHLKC

B1: ATXN2L (protein)
chain: MLKPQPLQQPSQPQQPPPTQQAVARRPPGGTSPPNGGLPGPLATSAAPPGPPAAASPCLGPVAAAGSGLRRGAEGILAPQPPPPQQHQERPGAAAIGSARGQSTGKGPPQSPVFEGVYNNSRMLHFLTAVVGSTCDVKVKNGTTYEGIFKTLSSKFELAVDAVHRKASEPAGGPRREDIVDTMVFKPSDVMLVHFRNVDFNYATKDKFTDSAIAMNSKVNGEHKEKVLQRWEGGDSNSDDYDLESDMSNGWDPNEMFKFNEENYGVKTTYDSSLSSYTVPLEKDNSEEFRQRELRAAQLAREIESSPQYRLRIAMENDDGRTEEEKHSAVQRQGSGRESPSLASREGKYIPLPQRVREGPRGGVRCSSSRGGRPGLSSLPPRGPHHLDNSSPGPGSEARGINGGPSRMSPKAQRPLRGAKTLSSPSNRPSGETSVPPPPAVGRMYPPRSPKSAAPAPISASCPEPPIGSAVPTSSASIPVTSSVSDPGVGSISPASPKISLAPTDVKELSTKEPGRTLEPQELARIAGKVPGLQNEQKRFQLEELRKFGAQFKLQPSSSPENSLDPFPPRILKEEPKGKEKEVDGLLTSEPMGSPVSSKTESVSDKEDKPPLAPSGGTEGPEQPPPPCPSQTGSPPVGLIKGEDKDEGPVAEQVKKSTLNPNAKEFNPTKPLLSVNKSTSTPTSPGPRTHSTPSIPVLTAGQSGLYSPQYISYIPQIHMGPAVQAPQMYPYPVSNSVPGQQGKYRGAKGSLPPQRSDQHQPASAPPMMQAAAAAGPPLVAATPYSSYIPYNPQQFPGQPAMMQPMAHYPSQPVFAPMLQSNPRMLTSGSHPQAIVSSSTPQYPSAEQPTPQALYATVHQSYPHHATQLHAHQPQPATTPTGSQPQSQHAAPSPVQHQAGQAPHLGSGQPQQNLYHPGALTGTPPSLPPGPSAQSPQSSFPQPAAVYAIHHQQLPHGFTNMAHVTQAHVQTGITAAPPPHPGAPHPPQVMLLHPPQSHGGPPQGAVPQSGVPALSASTPSPYPYIGHPQGEQPGQAPGFPGGADDRIREFSLAGGIWHGRAEGLQVGQDARVLGGE
B2: RARS (protein)
chain: MDVLVSECSARLLQQEEEIKSLTAEIDRLKNCGCLGASPNLEQLQEENLKLKYRLNILRKSLQAERNKPTKNMINIISRLQEVFGHAIKAAYPDLENPPLLVTPSQQAKFGDYQCNSAMGISQMLKTKEQKVNPREIAENITKHLPDNECIEKVEIAGPGFINVHLRKDFVSEQLTSLLVNGVQLPALGENKKVIVDFSSPNIAKEMHVGHLRSTIIGESISRLFEFAGYDVLRLNHVGDWGTQFGMLIAHLQDKFPDYLTVSPPIGDLQVFYKESKKRFDTEEEFKKRAYQCVVLLQGKNPDITKAWKLICDVSRQELNKIYDALDVSLIERGESFYQDRMNDIVKEFEDRGFVQVDDGRKIVFVPGCSIPLTIVKSDGGYTYDTSDLAAIKQRLFEEKADMIIYVVDNGQSVHFQTIFAAAQMIGWYDPKVTRVFHAGFGVVLGEDKKKFKTRSGETVRLMDLLGEGLKRSMDKLKEKERDKVLTAEELNAAQTSVAYGCIKYADLSHNRLNDYIFSFDKMLDDRGNTAAYLLYAFTRIRSIARLANIDEEMLQKAARETKILLDHEKEWKLGRCILRFPEILQKILDDLFLHTLCDYIYELATAFTEFYDSCYCVEKDRQTGKILKVNMWRMLLCEAVAAVMAKGFDILGIKPVQRM
B3: SDF4 (protein)
chain: RPANHSSTRERVANREENEILPPDHLNGVKLEMDGHLNRGFHQEVFLGKDLGGFDEDAEPRRSRRKLMVIFSKVDVNTDRKISAKEMQRWIMEKTAEHFQEAMEESKTHFRAVDPDGDGHVSWDEYKVKFLASKGHSEKEVADAIRLNEELKVDEETQEVLENLKDRWYQADSPPADLLLTEEEFLSFLHPEHSRGMLRFMVKEIVRDLDQDGDKQLSVPEFISLPVGTVENQQGQDIDDNWVKDRKKEFEELIDSNHDGIVTAEELESYMDPMNEYNALNEAKQMIAVADENQNHHLEPEEVLKYSEFFTGSKLVDYARSVHEEF
B4: HNRNPA1 (protein)
chain: SKSESPKEPEQLRKLFIGGLSFETTDESLRSHFEQWGTLTDCVVMRDPNTKRSRGFGFVTYATVEEVDAAMNARPHKVDGRVVEPKRAVSREDSQRPGAHLTVKKIFVGGIKEDTEEHHLRDYFEQYGKIEVIEIMTDRGSGKKRGFAFVTFDDHDSVDKIVIQKYHTVNGHNCEVRKALSKQEMASASSSQRGRSGSGNFGGGRGGGFGGNDNFGRGGNFSGRGGFGGSRGGGGYGGSGDGYNGFGNDGGYGGGGPGYSGGSRGYGSGGQGYGNQGSGYGGSGSYDSYNNGGGGGFGGGSGSNFGGGGSYNDFGNYNNQSSNFGPMKGGNFGGRSSGPYGGGGQYFAKPRNQGGYGGSSSSSSYGSGRRF
B5: SSR1 (protein)
chain: VLFRGGPRGLLAVAQDLTEDEETVEDSIIEDEDDEAEVEEDEPTDLVEDKEEEDVSGEPEASPSADTTILFVKGEDFPANNIVKFLVGFTNKGTEDFIVESLDASFRYPQDYQFYIQNFTALPLNTVVPPQRQATFEYSFIPAEPMGGRPFGLVINLNYKDLNGNVFQDAVFNQTVTVIEREDGLDGETIFMYMFLAGLGLLVIVGLHQLLESRKRKRPIQKVEMGTSSQNDVDMSWIPQETLNQINKASPRRLPRKRAQKRSVGSDE
B6: DSTN (protein)
chain: ASGVQVADEVCRIFYDMKVRKCSTPEEIKKRKKAVIFCLSADKKCIIVEEGKEILVGDVGVTITDPFKHFVGMLPEKDCRYALYDASFETKESRKEELMFFLWAPELAPLKSKMIYASSKDAIKKKFQGIKHECQANGPEDLNRACIAEKLGGSLIVAFEGCPV
B7: SPRR2E (protein)
chain: MSYQQQQCKQPCQPPPVCPTPKCPEPCPPPKCPEPCPPPKCPQPCPPQQCQQKCPPVTPSPPCQPKCPPKSK
B8: DNAJB11 (protein)
chain: GRDFYKILGVPRSASIKDIKKAYRKLALQLHPDRNPDDPQAQEKFQDLGAAYEVLSDSEKRKQYDTYGEEGLKDGHQSSHGDIFSHFFGDFGFMFGGTPRQQDRNIPRGSDIIVDLEVTLEEVYAGNFVEVVRNKPVARQAPGKRKCNCRQEMRTTQLGPGRFQMTQEVVCDECPNVKLVNEERTLEVEIEPGVRDGMEYPFIGEGEPHVDGEPGDLRFRIKVVKHPIFERRGDDLYTNVTISLVESLVGFEMDITHLDGHKVHISRDKITRPGAKLWKKGEGLPNFDNNNIKGSLIITFDVDFPKEQLTEEAREGIKQLLKQGSVQKVYNGLQGY

target: T1, B3GNT2; assay: Co-IP of FLAG-tagged B3GNT2 followed by mass spectrometry; type: cell-based; set-up: C-term IgG / C-term flag: unit not given here; conditions: Co-IP followed by mass spectrometry of B3GNT2; C-term tag, FLAG pull-down
Protocol: Cells were plated in 10-cm cell culture dishes and grown to 60-80% confluency. For each condition, two biological replicates were harvested for co-IP. Cells were washed with PBS and 4 mL of lysis buffer (20 mM HEPES, 1% Triton X-100, 150 mM NaCl, 1 mM EDTA, and 10% glycerol) containing protease inhibitor cocktail was added. Cells were scraped and lysate was incubated at 4° C. under rotary agitation for 1 h. Lysate was centrifuged at 14,000×g for 10 min at 4° C. Supernatant was transferred to a new tube and an aliquot was taken as the input. […] For Western blots, 10 μg/mL Chicken Anti-FLAG (Aves labs ET-DY100) and IgY control (R&D Systems AB-101-C) antibodies were biotinylated (Thermo Fisher Scientific 90407) and added to the respective conditions. Lysates with antibodies were incubated at 4° C. under rotary agitation overnight. For each mL of lysate, 50 μL of Pierce Protein A/G Magnetic Beads (Mass spectrometry; Thermo Fisher Scientific 88803) or Pierce Streptavidin Magnetic Beads (Western blot; Thermo Fisher Scientific 88817) was washed twice with lysis buffer. Lysates with antibodies were added to the beads and incubated at 4° C. under rotary agitation for 4 h. Beads were washed with lysis buffer 3 times and resuspended in lysis buffer for storage. […] This solution was subjected to solid phase extraction to concentrate the peptides and remove unwanted reagents followed by injection onto a Shimadzu HPLC with fraction collector. Eight fractions were collected and after concentration were injected on a Waters NanoAcquity HPLC equipped with a self-packed Aeris 3 μm C18 analytical column 0.075 mm by 20 cm, (Phenomenex). Peptides were eluted using standard reverse-phase gradients. The effluent from the column was analyzed using a Thermo Orbitrap Elite mass spectrometer (nanospray configuration) operated in a data dependent manner for 54 minutes. […] Scaffold Q+S (Proteome Software) was used to provide consensus reports for the identified proteins.

| Molecule | C-term flag |
| --- | --- |
| B1 | 5 |

same assay, conditions: Co-IP followed by mass spectrometry of B3GNT2; C-term tag, IgG pull-down

| Molecule | C-term IgG |
| --- | --- |
| B1 | 2 |

same assay, conditions: Co-IP followed by mass spectrometry of B3GNT2; N-term tag, FLAG pull-down

| Molecule | N-term FLAG |
| --- | --- |
| B1 | 5 |

same assay, conditions: Co-IP followed by mass spectrometry of B3GNT2; N-term tag, IgG pull-down

| Molecule | N-term IgG |
| --- | --- |
| B1 | 3 |

same assay, conditions: Co-IP with FLAG antibody, C-terminally FLAG-tagged B3GNT2; mass spectrometry count, unit not given

| Molecule | C-term flag |
| --- | --- |
| B2 | 2 |
| B3 | 7 |
| B4 | 9 |
| B5 | 4 |
| B6 | 3 |
| B7 | 0 |
| B8 | 4 |

same assay, conditions: Co-IP with FLAG antibody, N-terminally FLAG-tagged B3GNT2; mass spectrometry count, unit not given

| Molecule | N-term FLAG |
| --- | --- |
| B2 | 0 |
| B3 | 0 |
| B4 | 7 |
| B5 | 3 |
| B6 | 0 |
| B7 | 16 |
| B8 | 3 |

same assay, conditions: Co-IP with IgG control antibody, C-terminally FLAG-tagged B3GNT2; mass spectrometry count, unit not given

| Molecule | C-term IgG |
| --- | --- |
| B2 | 0 |
| B3 | 0 |
| B4 | 4 |
| B5 | 0 |
| B6 | 0 |
| B7 | 5 |
| B8 | 0 |

same assay, conditions: Co-IP with IgG control antibody, N-terminally FLAG-tagged B3GNT2; mass spectrometry count, unit not given

| Molecule | N-term IgG |
| --- | --- |
| B2 | 0 |
| B3 | 0 |
| B4 | 4 |
| B5 | 0 |
| B6 | 0 |
| B7 | 3 |
| B8 | 0 |
